Assay results as given in patent US20090162360A1.

Target: recombinant human IGF-1R on I24 cells (human) (UniProt P08069)
Assay: cellular FACS IGF-1R-ANGPT2 bridging assay: I24 cells + hIgG isotype, then 2 µg/mL hANGPT2, <ANGPT2>mIgG1-Biotin and Streptavidin-PE; negative control; untreated I24 cells (panel A): Mean 5.01

Mean (FL2-H fluorescence): 8.76
Substance: hIgG Isotype (antibody)
